US20260097113A1 (Pfizer, published 2026)

Molecular target: T1, RSV F protein of subtype A comprising a polypeptide of SEQ ID NO: 1 and a polypeptide of SEQ ID NO: 2 (RSV subtype A, UniProt P11209 137-513; P03420 26-109)
T1 construct: Stabilized prefusion F trimer made of three F2-F1 heterodimers; Produced recombinantly in CHO cells; also called RSV A; RSVA
T1 chain 1: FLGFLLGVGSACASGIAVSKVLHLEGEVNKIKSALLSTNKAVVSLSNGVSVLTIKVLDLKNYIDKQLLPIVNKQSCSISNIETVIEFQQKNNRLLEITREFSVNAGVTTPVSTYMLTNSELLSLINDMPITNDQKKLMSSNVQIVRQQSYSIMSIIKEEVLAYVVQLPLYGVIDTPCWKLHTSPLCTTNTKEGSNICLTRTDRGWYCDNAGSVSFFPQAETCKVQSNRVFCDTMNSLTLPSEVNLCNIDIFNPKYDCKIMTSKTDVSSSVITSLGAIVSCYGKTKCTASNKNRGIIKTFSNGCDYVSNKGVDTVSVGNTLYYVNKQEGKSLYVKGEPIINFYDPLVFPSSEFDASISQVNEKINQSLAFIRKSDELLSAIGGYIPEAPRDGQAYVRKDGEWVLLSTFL
T1 chain 2: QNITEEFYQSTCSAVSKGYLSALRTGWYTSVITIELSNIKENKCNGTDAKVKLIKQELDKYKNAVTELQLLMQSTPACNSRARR
Assay: AM14 ELISA; F13 (pH 7, 100 mM NaCl, 4.5% sucrose); 2 wk 5°C

B1: AM14 (trimeric prefusion specific antibody of the AM14 ELISA) (antibody, V domains shown)
VH: EVQLVESGGGVVQPGRSLRLSCAASGFSFSHYAMHWVRQAPGKGLEWVAVISYDGENTYYADSVKGRFSISRDNSKNTVSLQMNSLRPEDTALYYCARDRIVDDYYYYGMDVWGQGATVTVSS
VL: DIQMTQSPSSLSASVGDRVTITCQASQDIKKYLNWYHQKPGKVPELLMHDASNLETGVPSRFSGRGSGTDFTLTISSLQPEDIGTYYCQQYDNLPPLTFGGGTKVEIKR
notes: Antibody as used in the AM14 ELISA, detected with an HRP-labeled secondary antibody
  AM14 prefusion content (%), relative to standard: 75%
